Test [1] addresses T1, CRM197 (Corynebacterium diphtheriae, UniProt P00587 26-560). In words: SPR, Biacore T200, His-tagged HB-EGF captured on NTA chip. For orientation: SPR reads the build-up and loss of mass on a sensor chip optically.
Test [2] addresses T1, CRM197. Described as above. The source holds these as a separate data set.

This note sets out measurements from patent US20170029474A1 (OSAKA UNIVERSITY, published 2017).

Read-outs that look alike come from different tables or passages of the source.

B1: C-terminal His-tagged HB-EGF lacking the heparin-binding domain (ligand)
chain: DLQEADLDLLRVTLSSKPQALATPNKEEHGDPCLRKYKDFCIHGECKYVKELRAPSCICHPGYHGERCHGLSLP
notes: Captured on a Ni2+ NTA sensor chip for Biacore; also called C-terminal His-tagged recombinant HB-EGF; Δ••-EGF-His
For B1, the Ka amounted to 9.22e+08 M⁻¹ with CRM197 [1] and 9.8e+08 M⁻¹ with CRM197 [2].
